Six molecules from patent US20150374794A1 (Novo Nordisk, published 2015) can be followed below.

Numbered stars: 1 amine (or outer) side, 2 acyl side, 3 side chain; on linkers, the order of the positions; unused ones are H or OH. Square brackets hold non-standard residues; d marks the D form. Side chains are listed from the residue outwards. Ends that are not written are not given here. * marks the point of attachment. C18 diacid = O=C(O)CCCCCCCCCCCCCCCCC(=O)*; γGlu = O=C(O)[C@H](CCC(=O)[*:2])N[*:1]; Ac4c = NC1(C(=O)O)CCC1; AEEA = NCCOCCOCC(=O)O; Aib = CC(C)(N)C(=O)O

Assay [1] has as its target T1, human GLP-1 receptor (human, UniProt P43220 24-463). Description: cell-based or functional assay.
Assay [2] concerns the target T2, human glucagon receptor (human, UniProt P47871 26-477). Description: cell-based or functional assay.
Assay [3] addresses T2, human glucagon receptor. Description: displacement of 125I-glucagon, membranes with human glucagon receptor, SPA. As for the experimental part: The receptor binding of each compound to the human glucagon receptor was measured in a displacement binding assay. […] Each derivative was added in a series of concentrations to isolated membranes containing the human glucagon receptor and displacement of the labelled ligand is monitored. The receptor binding was reported as the concentration at which half of the labelled ligand is displaced from the receptor, the IC₅₀ value.
For orientation: Displacement assays read how much labelled ligand stays bound in the presence of the test substance.

For assay [4], the target named is T1, human GLP-1 receptor. Description: displacement of 125I-GLP-1(7-36)NH2, membranes with human GLP-1R, SPA. The method, then: The receptor binding of each compound to the human GLP-1 receptor was measured in a displacement binding assay. […] Each derivative was added in a series of concentrations to isolated membranes containing the human GLP-1 receptor and displacement of the labelled ligand was monitored. The receptor binding was reported as the concentration at which half of the labelled ligand was displaced from the receptor, the IC₅₀ value.

T2 sequence (P47871 26-477): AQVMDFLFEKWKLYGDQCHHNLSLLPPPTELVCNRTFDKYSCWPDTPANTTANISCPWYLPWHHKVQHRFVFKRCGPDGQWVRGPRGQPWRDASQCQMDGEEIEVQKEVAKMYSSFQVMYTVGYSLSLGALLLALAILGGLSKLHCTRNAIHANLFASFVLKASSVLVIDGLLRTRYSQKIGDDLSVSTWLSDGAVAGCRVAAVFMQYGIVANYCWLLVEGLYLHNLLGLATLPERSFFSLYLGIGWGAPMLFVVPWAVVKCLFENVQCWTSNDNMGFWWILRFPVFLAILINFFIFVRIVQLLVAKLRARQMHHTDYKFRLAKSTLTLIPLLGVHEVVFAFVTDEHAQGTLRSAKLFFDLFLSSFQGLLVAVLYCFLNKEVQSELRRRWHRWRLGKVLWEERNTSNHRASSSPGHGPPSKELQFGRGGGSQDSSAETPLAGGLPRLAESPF

B1: N^ε28-[(4S)-4-carboxy-4-[[(4S)-4-carboxy-4-[[2-[2-[2-[[2-[2-[2-[[(4S)-4-carboxy-4-(17-carboxyheptadecanoylamino)butanoyl]amino]ethoxy]ethoxy]acetyl]amino]ethoxy … (peptide)
peptide: H[Aib]QGTFTSDLSKYLDARRAREFVQWLLK([γGlu-γGlu-AEEA-AEEA-γGlu-C18 diacid])T-NH2
modifications: N-terminus assumed
SMILES: CC(C)C[C@H](NC(=O)[C@H](Cc1ccc(O)cc1)NC(=O)[C@H](CCCCN)NC(=O)[C@H](CO)NC(=O)[C@H](CC(C)C)NC(=O)[C@H](CC(=O)O)NC(=O)[C@H](CO)NC(=O)[C@@H](NC(=O)[C@H](Cc1ccccc1)NC(=O)[C@@H](NC(=O)CNC(=O)[C@H](CCC(N)=O)NC(=O)C(C)(C)NC(=O)[C@@H](N)Cc1c[nH]cn1)[C@@H](C)O)[C@@H](C)O)C(=O)N[C@@H](CC(=O)O)C(=O)N[C@@H](C)C(=O)N[C@@H](CCCNC(=N)N)C(=O)N[C@@H](CCCNC(=N)N)C(=O)N[C@@H](C)C(=O)N[C@@H](CCCNC(=N)N)C(=O)N[C@@H](CCC(=O)O)C(=O)N[C@@H](Cc1ccccc1)C(=O)N[C@H](C(=O)N[C@@H](CCC(N)=O)C(=O)N[C@@H](Cc1c[nH]c2ccccc12)C(=O)N[C@@H](CC(C)C)C(=O)N[C@@H](CC(C)C)C(=O)N[C@@H](CCCCNC(=O)CC[C@H](NC(=O)CC[C@H](NC(=O)COCCOCCNC(=O)COCCOCCNC(=O)CC[C@H](NC(=O)CCCCCCCCCCCCCCCCC(=O)O)C(=O)O)C(=O)O)C(=O)O)C(=O)N[C@H](C(N)=O)[C@@H](C)O)C(C)C
Take B1: the “EC50 GLP-1R, CRE luciferase reporter gene assay in BHK cells” value (“EC50 GLP-1R” below) in assay [1] stood at 0.005 nM. In addition, the “EC50 GlucR, CRE luciferase reporter gene assay in BHK cells” value (shortened to “EC50 GlucR”) in assay [2] was found to be 0.002 nM. For the same molecule, the results for the IC50 in assay [3] and in assay [4] were 5.6 nM and 0.3 nM, respectively.

B2: N^ε28-[(4S)-4-carboxy-4-[[(4S)-4-carboxy-4-[[2-[2-[2-[[2-[2-[2-[[(4S)-4-carboxy-4-[[(4S)-4-carboxy-4-(17-carboxyheptadecanoylamino)butanoyl]amino]butanoyl]amino … (peptide)
peptide: H[Ac4c]QGTFTSDLSKYLDLKRAREFVQWLLK([γGlu-γGlu-AEEA-AEEA-γGlu-γGlu-C18 diacid])T-NH2
modifications: N-terminus assumed
SMILES: CC(C)C[C@H](NC(=O)[C@H](CC(=O)O)NC(=O)[C@H](CC(C)C)NC(=O)[C@H](Cc1ccc(O)cc1)NC(=O)[C@H](CCCCN)NC(=O)[C@H](CO)NC(=O)[C@H](CC(C)C)NC(=O)[C@H](CC(=O)O)NC(=O)[C@H](CO)NC(=O)[C@@H](NC(=O)[C@H](Cc1ccccc1)NC(=O)[C@@H](NC(=O)CNC(=O)[C@H](CCC(N)=O)NC(=O)C1(NC(=O)[C@@H](N)Cc2c[nH]cn2)CCC1)[C@@H](C)O)[C@@H](C)O)C(=O)N[C@@H](CCCCN)C(=O)N[C@@H](CCCNC(=N)N)C(=O)N[C@@H](C)C(=O)N[C@@H](CCCNC(=N)N)C(=O)N[C@@H](CCC(=O)O)C(=O)N[C@@H](Cc1ccccc1)C(=O)N[C@H](C(=O)N[C@@H](CCC(N)=O)C(=O)N[C@@H](Cc1c[nH]c2ccccc12)C(=O)N[C@@H](CC(C)C)C(=O)N[C@@H](CC(C)C)C(=O)N[C@@H](CCCCNC(=O)CC[C@H](NC(=O)CC[C@H](NC(=O)COCCOCCNC(=O)COCCOCCNC(=O)CC[C@H](NC(=O)CC[C@H](NC(=O)CCCCCCCCCCCCCCCCC(=O)O)C(=O)O)C(=O)O)C(=O)O)C(=O)O)C(=O)N[C@H](C(N)=O)[C@@H](C)O)C(C)C
For the molecule B2, the “EC50 GLP-1R” value in assay [1] is 0.017 nM. Also, the “EC50 GlucR” value in assay [2] was 0.005 nM. In addition, the IC50 (as a rule, the concentration at which inhibition is half-maximal) is 1.5 nM in assay [3] and 0.2 nM in assay [4].

B3: N^ε28-[(4S)-4-carboxy-4-[[(4S)-4-carboxy-4-[[2-[2-[2-[[2-[2-[2-[[(4S)-4-carboxy-4-[[(4S)-4-carboxy-4-(17-carboxyheptadecanoylamino)butanoyl]amino]butanoyl]amino … (peptide)
peptide: H[Ac4c]QGTFTSDLSRYLESRRAREFVQWLLK([γGlu-γGlu-AEEA-AEEA-γGlu-γGlu-C18 diacid])T-NH2
modifications: N-terminus assumed
SMILES: CC(C)C[C@H](NC(=O)[C@H](Cc1ccc(O)cc1)NC(=O)[C@H](CCCNC(=N)N)NC(=O)[C@H](CO)NC(=O)[C@H](CC(C)C)NC(=O)[C@H](CC(=O)O)NC(=O)[C@H](CO)NC(=O)[C@@H](NC(=O)[C@H](Cc1ccccc1)NC(=O)[C@@H](NC(=O)CNC(=O)[C@H](CCC(N)=O)NC(=O)C1(NC(=O)[C@@H](N)Cc2c[nH]cn2)CCC1)[C@@H](C)O)[C@@H](C)O)C(=O)N[C@@H](CCC(=O)O)C(=O)N[C@@H](CO)C(=O)N[C@@H](CCCNC(=N)N)C(=O)N[C@@H](CCCNC(=N)N)C(=O)N[C@@H](C)C(=O)N[C@@H](CCCNC(=N)N)C(=O)N[C@@H](CCC(=O)O)C(=O)N[C@@H](Cc1ccccc1)C(=O)N[C@H](C(=O)N[C@@H](CCC(N)=O)C(=O)N[C@@H](Cc1c[nH]c2ccccc12)C(=O)N[C@@H](CC(C)C)C(=O)N[C@@H](CC(C)C)C(=O)N[C@@H](CCCCNC(=O)CC[C@H](NC(=O)CC[C@H](NC(=O)COCCOCCNC(=O)COCCOCCNC(=O)CC[C@H](NC(=O)CC[C@H](NC(=O)CCCCCCCCCCCCCCCCC(=O)O)C(=O)O)C(=O)O)C(=O)O)C(=O)O)C(=O)N[C@H](C(N)=O)[C@@H](C)O)C(C)C
As for B3, the “EC50 GLP-1R” value in assay [1] was 0.004 nM. For the same molecule, the “EC50 GlucR” value in assay [2] was 0.017 nM. The IC50 in assay [3] is 1.4 nM; in assay [4], 0.2 nM.

B4: N^ε28-[(4S)-4-carboxy-4-[[(4S)-4-carboxy-4-[[2-[2-[2-[[2-[2-[2-[[(4S)-4-carboxy-4-[[(4S)-4-carboxy-4-(17-carboxyheptadecanoylamino)butanoyl]amino]butanoyl]amino … (peptide)
peptide: H[Ac4c]QGTFTSDLSKYLDLRRAREFVQWLLK([γGlu-γGlu-AEEA-AEEA-γGlu-γGlu-C18 diacid])T-NH2
modifications: N-terminus assumed
SMILES: CC(C)C[C@H](NC(=O)[C@H](CC(=O)O)NC(=O)[C@H](CC(C)C)NC(=O)[C@H](Cc1ccc(O)cc1)NC(=O)[C@H](CCCCN)NC(=O)[C@H](CO)NC(=O)[C@H](CC(C)C)NC(=O)[C@H](CC(=O)O)NC(=O)[C@H](CO)NC(=O)[C@@H](NC(=O)[C@H](Cc1ccccc1)NC(=O)[C@@H](NC(=O)CNC(=O)[C@H](CCC(N)=O)NC(=O)C1(NC(=O)[C@@H](N)Cc2c[nH]cn2)CCC1)[C@@H](C)O)[C@@H](C)O)C(=O)N[C@@H](CCCNC(=N)N)C(=O)N[C@@H](CCCNC(=N)N)C(=O)N[C@@H](C)C(=O)N[C@@H](CCCNC(=N)N)C(=O)N[C@@H](CCC(=O)O)C(=O)N[C@@H](Cc1ccccc1)C(=O)N[C@H](C(=O)N[C@@H](CCC(N)=O)C(=O)N[C@@H](Cc1c[nH]c2ccccc12)C(=O)N[C@@H](CC(C)C)C(=O)N[C@@H](CC(C)C)C(=O)N[C@@H](CCCCNC(=O)CC[C@H](NC(=O)CC[C@H](NC(=O)COCCOCCNC(=O)COCCOCCNC(=O)CC[C@H](NC(=O)CC[C@H](NC(=O)CCCCCCCCCCCCCCCCC(=O)O)C(=O)O)C(=O)O)C(=O)O)C(=O)O)C(=O)N[C@H](C(N)=O)[C@@H](C)O)C(C)C
Consider B4, for which the “EC50 GLP-1R” value in assay [1] came out at 0.017 nM. Besides, the “EC50 GlucR” value in assay [2] turned out to be 0.004 nM. Besides, the IC50 is 1.7 nM in assay [3] and 0.4 nM in assay [4].

B5: N^ε28-[(4S)-4-carboxy-4-[[(4S)-4-carboxy-4-[[2-[2-[2-[[2-[2-[2-[[(4S)-4-carboxy-4-[[(4S)-4-carboxy-4-(17-carboxyheptadecanoylamino)butanoyl]amino]butanoyl]amino … (peptide)
peptide: H[Ac4c]QGTFTSDLSKYLDLRRARDFVQWLLK([γGlu-γGlu-AEEA-AEEA-γGlu-γGlu-C18 diacid])T-NH2
modifications: N-terminus assumed
SMILES: CC(C)C[C@H](NC(=O)[C@H](CC(=O)O)NC(=O)[C@H](CC(C)C)NC(=O)[C@H](Cc1ccc(O)cc1)NC(=O)[C@H](CCCCN)NC(=O)[C@H](CO)NC(=O)[C@H](CC(C)C)NC(=O)[C@H](CC(=O)O)NC(=O)[C@H](CO)NC(=O)[C@@H](NC(=O)[C@H](Cc1ccccc1)NC(=O)[C@@H](NC(=O)CNC(=O)[C@H](CCC(N)=O)NC(=O)C1(NC(=O)[C@@H](N)Cc2c[nH]cn2)CCC1)[C@@H](C)O)[C@@H](C)O)C(=O)N[C@@H](CCCNC(=N)N)C(=O)N[C@@H](CCCNC(=N)N)C(=O)N[C@@H](C)C(=O)N[C@@H](CCCNC(=N)N)C(=O)N[C@@H](CC(=O)O)C(=O)N[C@@H](Cc1ccccc1)C(=O)N[C@H](C(=O)N[C@@H](CCC(N)=O)C(=O)N[C@@H](Cc1c[nH]c2ccccc12)C(=O)N[C@@H](CC(C)C)C(=O)N[C@@H](CC(C)C)C(=O)N[C@@H](CCCCNC(=O)CC[C@H](NC(=O)CC[C@H](NC(=O)COCCOCCNC(=O)COCCOCCNC(=O)CC[C@H](NC(=O)CC[C@H](NC(=O)CCCCCCCCCCCCCCCCC(=O)O)C(=O)O)C(=O)O)C(=O)O)C(=O)O)C(=O)N[C@H](C(N)=O)[C@@H](C)O)C(C)C
In the case of B5, the “EC50 GLP-1R” value in assay [1] came to 0.018 nM. For the same molecule, the “EC50 GlucR” value in assay [2] was determined as 0.006 nM. In addition, the IC50 in assay [3] is 4.5 nM; in assay [4], 0.4 nM.

B6: N^ε28-[(4S)-4-carboxy-4-[[(4S)-4-carboxy-4-[[2-[2-[2-[[2-[2-[2-[[(4S)-4-carboxy-4-[[(4S)-4-carboxy-4-(17-carboxyheptadecanoylamino)butanoyl]amino]butanoyl]amino … (peptide)
peptide: H[Ac4c]QGTFTSDLSRYLDLRRARDFVQWLLK([γGlu-γGlu-AEEA-AEEA-γGlu-γGlu-C18 diacid])T-NH2
modifications: N-terminus assumed
SMILES: CC(C)C[C@H](NC(=O)[C@H](CC(=O)O)NC(=O)[C@H](CC(C)C)NC(=O)[C@H](Cc1ccc(O)cc1)NC(=O)[C@H](CCCNC(=N)N)NC(=O)[C@H](CO)NC(=O)[C@H](CC(C)C)NC(=O)[C@H](CC(=O)O)NC(=O)[C@H](CO)NC(=O)[C@@H](NC(=O)[C@H](Cc1ccccc1)NC(=O)[C@@H](NC(=O)CNC(=O)[C@H](CCC(N)=O)NC(=O)C1(NC(=O)[C@@H](N)Cc2c[nH]cn2)CCC1)[C@@H](C)O)[C@@H](C)O)C(=O)N[C@@H](CCCNC(=N)N)C(=O)N[C@@H](CCCNC(=N)N)C(=O)N[C@@H](C)C(=O)N[C@@H](CCCNC(=N)N)C(=O)N[C@@H](CC(=O)O)C(=O)N[C@@H](Cc1ccccc1)C(=O)N[C@H](C(=O)N[C@@H](CCC(N)=O)C(=O)N[C@@H](Cc1c[nH]c2ccccc12)C(=O)N[C@@H](CC(C)C)C(=O)N[C@@H](CC(C)C)C(=O)N[C@@H](CCCCNC(=O)CC[C@H](NC(=O)CC[C@H](NC(=O)COCCOCCNC(=O)COCCOCCNC(=O)CC[C@H](NC(=O)CC[C@H](NC(=O)CCCCCCCCCCCCCCCCC(=O)O)C(=O)O)C(=O)O)C(=O)O)C(=O)O)C(=O)N[C@H](C(N)=O)[C@@H](C)O)C(C)C
As to B6, in assay [1], the “EC50 GLP-1R” value was 0.021 nM. The “EC50 GlucR” value in assay [2] was 0.016 nM. The IC50 was determined as 8.5 nM in assay [3] and 1.1 nM in assay [4].
